Laboratory results reported in patent publication US20250059273A1 (UNM RAINFOREST INNOVATIONS, published 2025).
Ends that are not written are not given here.

T1: rat P2X4R extracellular peptide (a.a. 301-313, C-RDLAGKEQRTLTK) (rat, not fully specified (N-terminus))
T1 construct: also called P2X4R peptide; rat P2X4 peptide
T1 peptide: RDLAGKEQRTLTK

T2: human P2X4 peptide (human, UniProt Q99571 301-313)
T2 construct: range 301-313; The range 301-313 is stated for rat P2X4R, with the human peptide as its 'human form'; also called human Target P2X4R peptide; thirteen amino acid extracellular peptide fragment of human P2X4 receptor
T2 peptide (looked up): RDLAGNEQRTLIK

T3: Hu CCK-B receptor protein (human, UniProt P32239 1-447, limits assumed)
T3 construct: also called human CCK-B receptor
T3 sequence (looked up): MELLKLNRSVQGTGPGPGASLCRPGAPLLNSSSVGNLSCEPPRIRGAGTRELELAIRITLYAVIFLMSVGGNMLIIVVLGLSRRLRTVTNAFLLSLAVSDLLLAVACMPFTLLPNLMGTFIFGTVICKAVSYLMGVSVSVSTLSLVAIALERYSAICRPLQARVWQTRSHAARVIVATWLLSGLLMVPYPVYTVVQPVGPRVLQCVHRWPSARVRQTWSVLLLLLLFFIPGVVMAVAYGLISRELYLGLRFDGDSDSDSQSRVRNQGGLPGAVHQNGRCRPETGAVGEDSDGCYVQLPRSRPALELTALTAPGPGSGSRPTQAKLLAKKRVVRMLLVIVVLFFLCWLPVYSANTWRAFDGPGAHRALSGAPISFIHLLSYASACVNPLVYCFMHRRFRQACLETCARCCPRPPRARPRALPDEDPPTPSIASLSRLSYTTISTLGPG


Assays:
[1] = molecular target: T1, rat P2X4R extracellular peptide (a.a. …); test: indirect ELISA titration on P2X4R peptide; legend box headed 'APPARENT Kd (nM)'
[2] = molecular target: T2, human P2X4 peptide; test: indirect ELISA, wells coated with human P2X4 peptide, anti-His detection
[3] = molecular target: T3, Hu CCK-B receptor protein; test: indirect ELISA on human CCK-B receptor protein, concentration not shown
[4] = molecular target: T1, rat P2X4R extracellular peptide (a.a. …); test: indirect ELISA of purified scFv on rat P2X4 peptide, concentration not shown
[5] = molecular target: T2, human P2X4 peptide; test: indirect ELISA on human P2X4 peptide
[6] = molecular target: human and mouse peptide targets; test: not stated (estimated affinity)

Binder	Kd [1]	Kd [2]	binding result [3]	binding result [4]	fold affinity improvement over parental mscFv95 [5]	Kd [6]	fold affinity enhancement over parental mscFv95 [5]
P2X4-scFv12 (scFv) scFv: MADVKLQESGPGLVKPSQSLSLTCSVTGYSITSGYYWNWIRQFPGNKLEWMGYISYDGSNNYNPSLKNRISITRDTSKNQFFLKLNSVTTEDTATYYCARSDYDLYYYAMDYWGQGTSVTVSSAKTTPPSGGGGSGGGGSGGGGGSGGGGSDIVMTQSPATLSVTPGDRVSLSCRASQSISDYLHWYQQKSHESPRLLIKYASQSISGIPSRFSGSGSGSDFTLSINSVEPEDVGVYYCQNGHSFPLTFGSGTKLEIKRADAAALEHHHHHH	177 nM	–	–	–	–	–	–
P2X4-scFv103 (scFv) scFv: MAQVQLKESGAELVRSGASVKLSCTASGFNIKNTYMHWVKQRPEQGLEWIGRIDPASGNTKYAPKFQGKATITADTSSNTAYLQLSSLTSEDTAIYYCARFYDGYYWGQGTTLTVSSAKTTAPSGGGGSGGGGSGGGGSGGGGSAIMSASPGEKVTMTCSASSSVSYMHWYQQKSGTSPKRWIYDTSKLASGVPARFSGSGSGTSYSLTISRMEAEDAATYYCQQYSGYGTFGGGTKLEIKRADAAALEHHHHHH	978 nM	–	–	–	–	–	–
humanized P2X4R scFv HC1-LC1 (scFv, HC-(G4S)3-LC with C-terminal His tag, expressed in E. coli) scFv: MAEVKLVESGGGLVQPGGSLRLSCATSGFTFTDYYMSWVRQPPGKALEWLGFIRNKANGYTTEYSASVKGRFTISRDNSQSILYLQMNTLRAEDSATYYCARWEGDLLYAMDYWGQGTSVTVSSGGGGSGGGGSGGGGSDIQMTQTTSSLSASLGDRVTISCSASQGISNYLNWYQQKPDGTVKLLIYYTSSLHSGVPSRFSGSGSGTDYSLTISNLEQEDIATYYCQQYSKLPWTFGGGTKLEIKRAAALEHHHHHH	–	24 nM	no binding	binds	–	–	–
P2X4-scFv95 (parental murine anti-P2X4R scFv) (scFv, also called mscFv95; clone 95) scFv: MAEVKLVESGGGLVQPGGSLRLSCATSGFTFTDYYMSWVRQPPGKALEWLGFIRNKANGYTTEYSASVKGRFTISRDNSQSILYLQMNTLRAEDSATYYCARWEGDLLYAMDYWGQGTSVTVSSGGGGSGGGGSGGGGGSGGGGSDIQMTQTTSSLSASLGDRVTISCSASQGISNYLNWYQQKPDGTVKLLIYYTSSLHSGVPSRFSGSGSGTDYSLTISNLEPEDIATYYCQQYSKLPWTFGGGTKLEIKRADAAALEHHHHHH	130 nM	130 nM	no binding	–	–	130 to 190 nM	–

Further lines, results first:

Kd [1]	Kd [2]	binding result [3]	binding result [4]	fold affinity improvement over parental mscFv95 [5]	Kd [6]	fold affinity enhancement over parental mscFv95 [5]	Binder
–	4.7 nM	no binding	binds	> 10 fold	–	–	humanized P2X4R scFv HC3-LC1 (scFv, HC-(G4S)3-LC with C-terminal His tag, expressed in E. coli) scFv: MAEVQLVESGGGLVQPGGSLRLSCATSGFTFTDYYMHWVRQAPGKGLEWVGFIRNKANGYTTEYSASVKGRFTISRDNSKNTLYLQMNSLRAEDTAVYYCARWEGDLLYAMDYWGQGTLVTVSSGGGGSGGGGSGGGGSDIQMTQTTSSLSASLGDRVTISCSASQGISNYLNWYQQKPDGTVKLLIYYTSSLHSGVPSRFSGSGSGTDYSLTISNLEQEDIATYYCQQYSKLPWTFGGGTKLEIKRAAALEHHHHHH
–	29 nM	no binding	binds	–	–	–	humanized P2X4R scFv HC2-LC3 (scFv, HC-(G4S)3-LC with C-terminal His tag) scFv: MAQVQLQESGPGLVKPSQTLSLTCTTSGFTFTDYYMSWVRQAPGKGLEWIGFIRNKANGYTTEYSASVKGRFTISRDNSKNQFSLRLSSVTAADTAVYYCARWEGDLLYAMDYWGQGTTVTVSSGGGGSGGGGSGGGGSDIQMTQSPSSLSASVGDRVTITCRASQGISNYLNWYQQKPGKAPKLLIYYTSSLHSGVPSRFSGSGSGTDFTLTISSLQPEDFAYYYCQQYSKLPWTFGGGTKVEIKRAAALEHHHHHH
–	12 nM	no binding	binds	> 10 fold	–	–	humanized P2X4R scFv HC2-LC1 (scFv, HC-(G4S)3-LC with C-terminal His tag, expressed in E. coli) scFv: MAQVQLQESGPGLVKPSQTLSLTCTTSGFTFTDYYMSWVRQAPGKGLEWIGFIRNKANGYTTEYSASVKGRFTISRDNSKNQFSLRLSSVTAADTAVYYCARWEGDLLYAMDYWGQGTTVTVSSGGGGSGGGGSGGGGSDIQMTQTTSSLSASLGDRVTISCSASQGISNYLNWYQQKPDGTVKLLIYYTSSLHSGVPSRFSGSGSGTDYSLTISNLEQEDIATYYCQQYSKLPWTFGGGTKLEIKRAAALEHHHHHH
–	2.3 nM	no binding	binds	> 10 fold	–	> 50 fold	humanized hP2X4R scFv HC3-LC3 (scFv, HC-(G4S)3-LC with C-terminal His tag; also called hP2X4R HC3-LC3 scFv; HC3 LC3 hP2X4R scFv) scFv: MAEVQLVESGGGLVQPGGSLRLSCATSGFTFTDYYMHWVRQAPGKGLEWVGFIRNKANGYTTEYSASVKGRFTISRDNSKNTLYLQMNSLRAEDTAVYYCARWEGDLLYAMDYWGQGTLVTVSSGGGGSGGGGSGGGGSDIQMTQSPSSLSASVGDRVTITCRASQGISNYLNWYQQKPGKAPKLLIYYTSSLHSGVPSRFSGSGSGTDFTLTISSLQPEDFAYYYCQQYSKLPWTFGGGTKVEIKRAAALEHHHHHH
